# Target: CdiA-CT_(PA0041), C-terminal (CT) toxin domain of CdiA_(PA0041) of P. aeruginosa PAO1 (P. aeruginosa PAO1)
substance,measurement,value
"CdiI_(PA2462)-His6, immunity protein of the cdi_(PA2462) locus of P. aeruginosa PAO1 (natural protein)","decrease of CFU/ml of E. coli co-producing CdiA-CT (PA0041) (1% arabinose) with the non-cognate CdiI (PA2462)-His6 (1 mM IPTG), after 6 h of culture: no protection",6 logs
